Assay results from US20050287132A1, “Biliverdin reductase fragments and variants, and methods of using biliverdin reductase and such fragments and variants” (University of Rochester, priority 1999, published 2005).

Assays:
biliverdin reductase [1] = test: Phosphorylation state of hBVR, SDS-PAGE immunoblot with anti-phospho antibodies; assay type: biochemical, human; conditions: for autophosphorylation activity: anti-phospho mix blot, corrected for protein loading
Protocol: (§1) Purified protein was subjected to 12.5% SDS-PAGE and the protein transferred to PVDF membrane. The membrane was subsequently treated as for Western blotting, using anti-phosphoserine, anti-phosphotyrosine or anti-phosphothreonine, at 2 μg/ml, or a mixture of all three antibodies as the primary antibody. The secondary antibody was goat anti-rabbit horseradish peroxidase at a 1:1000 dilution and detection was carried out using the ECL reagent kit (NEN Life Sciences) according to the manufacturer's instructions.

[2] = Biliverdin reductase catalytic activity of recombinant wild type and mutant hBVR (Example 2, FIG. 3); assay type: biochemical, human
Protocol: FIGS. 3A-C are graphs depicting the effects of mutation of Gly^17, Ser^149, and Lys^296 on BVR catalytic activity. Purified preparations of recombinant wild type and mutant BVR with substitution of Gly^17 (FIG. 3A), Ser^149 (FIG. 3B), or Lys^296 (FIG. 3C) with Ala were assessed for BVR activity at pH 6.5 using NADH as cofactor and at pH 8.7 with NADPH as cofactor. Values presented are in percent wild type activity for each pH. The specific activity of the wild type preparation was 1744 nmol bilirubin produced min^−1 mg^−1 at pH 6.5 and 1147 nmol bilirubin produced min^−1 mg^−1 at pH 8.7. Values presented are representative of 2-4 determinations.
GST-BVR fusion proteins were prepared as described in Example 1. Human kidney biliverdin reductase was purified to homogeneity as described by Maines et al., Arch. Biochem. Biophys. 300:320-326 (1993), which is hereby incorporated by reference. The purified reductase preparations were judged to be homogenous by SDS-PAGE. Protein concentration was determined by the method of Bradford, Anal. Biochem. 72:248-254 (1976), which is hereby incorporated by reference.
Activity was determined as previously described by Huang et al., J. Biol. Chem. 264:7844-7849 (1989), which is hereby incorporated by reference, using NADPH as the cofactor at pH 8.7 in 0.1 M […] or NADH at pH 6.5 in […]. The rate of activity was measured as the increase in 450 nm absorbance at 25° C. Specific activity is expressed in units/mg protein, where 1 unit catalyzes the formation of 1 nmol bilirubin/min.

HeLa cells = test: Nuclear translocation of hemagglutinin-tagged BVR constructs after 8-bromo-cGMP, immunofluorescence; assay type: cell-based, human; conditions: 500 μM 8-bromo-cGMP, 5 min (up to 60 min)
Protocol: HeLa cells were grown on glass cover slips in DMEM medium containing 10% FBS under an atmosphere of 5% CO2. Cells were transfected with different BVR constructs using Lipofectamine, as described by the manufacturer. Briefly, cells were treated with a mixture of 2 μg DNA and 20 μl Lipofectamine for 5 h followed by the addition of DMEM medium. After 48 h, cells were treated with 500 μM 8-bromo-cGMP for 5, 20 or 60 min, fixed with 4% paraformaldehyde for 10 min. Cells were then rinsed with phosphate-buffered saline, incubated with 5% goat serum to block nonspecific binding sites and then with monoclonal anti hemagglutinin primary antibody and FITC conjugated secondary antibody. Cells were visualized by direct fluorescence microscopy.

[3] = Biliverdin reductase activity of E. coli expressed hBVR wild type and mutants (Example 1); assay type: biochemical, human; conditions: for Activity (nmol bilirubin/min/mg) pH 6.7 + NADH: pH 6.7, NADH cofactor; for Activity (nmol bilirubin/min/mg) pH 6.7 + NADH / Activity (nmol bilirubin/min/mg) pH 8.7 + NADPH: 25°; for Activity (nmol bilirubin/min/mg) pH 8.7 + NADPH: pH 8.7, NADPH cofactor
Protocol: SalI linkers are underlined in each primer. The products were digested with SalI and cloned into the vector pGEX 4T-2. Orientation was determined by restriction analysis and confirmed by sequencing. The ligation places the BVR coding region in frame with the GST protein of the vector. GST-BVR fusion proteins were purified from bacterial clones containing the plasmid, and grown overnight using a glutathione-sepharose 4B column (Pharmacia). The reductase portion of the fusion protein was released by thrombin protease treatment.
Activity was determined as previously described (Kutty et al., J. Biol. Chem. 256:3956-3962 (1981); Huang et al., J. Biol. Chem. 264:7844-7849 (1989), which are hereby incorporated by reference). Activity was determined in a 1 ml assay volume that contained 0.1 M Tris/HCl, pH 8.7 NADPH (100 μM), and biliverdin (5 μM). Reductase activity was also measured using NADH (1 mM) as the cofactor; in this case 0.1 M potassium phosphate pH 6.75, was substituted for Tris/HCl. SDS/PAGE was performed by the method of Laemmli, Nature 227:680-685 (1970), which is hereby incorporated by reference. Western blot analysis was performed using anti-serum to human kidney biliverdin reductase as previously described (Maines et al., Arch. Biochem. Biophys. 300:320-326 (1993), which is hereby incorporated by reference). The relative amounts of immunoreactive protein were determined by scanning the blot using a laser densitometer and comparing the area under the peak for each mutant with the wild type. The rate of activity was measured as the increase in 450 nm absorbance at 25° C. Specific activity is expressed as nmol bilirubin/min/ mg protein.

biliverdin reductase [4] = molecular target: T1, biliverdin reductase (Homo sapiens, UniProt P53004, A154S/E160D/G155D/G17A); test: Phosphorylation state of hBVR, SDS-PAGE immunoblot with anti-phospho antibodies; assay type: biochemical; conditions: versus wild type
T1 construct: used to amplify the full-length cDNA by PCR as described in purification of cloned reductase; GST (N, cleaved yes); made in house; host or cells: E. coli
T1 sequence (P53004 1-296 G17A/A154S/G155D/E160D): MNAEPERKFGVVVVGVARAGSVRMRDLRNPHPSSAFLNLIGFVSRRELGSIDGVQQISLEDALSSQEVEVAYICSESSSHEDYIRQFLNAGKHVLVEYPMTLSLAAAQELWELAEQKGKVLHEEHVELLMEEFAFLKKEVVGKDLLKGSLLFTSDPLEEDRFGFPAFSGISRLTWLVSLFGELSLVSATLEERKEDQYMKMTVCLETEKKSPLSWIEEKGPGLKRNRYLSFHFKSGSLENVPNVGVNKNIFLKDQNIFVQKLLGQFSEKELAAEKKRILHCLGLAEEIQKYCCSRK
Protocol: as §1

Molecule | autophosphorylation activity (biliverdin reductase [1]) | BVR catalytic activity versus wild type ([2]; pH 6.5, NADH) | BVR catalytic activity versus wild type ([2]; pH 8.7, NADPH) | nuclear localization in response to 8-bromo-cGMP (HeLa cells) | Activity (nmol bilirubin/min/mg) pH 6.7 + NADH [3] [nmol bilirubin/min/mg] | reductase activity relative to the control (wild type) ([3]; pH 6.7 with NADH) | Activity (nmol bilirubin/min/mg) pH 8.7 + NADPH [3] [nmol bilirubin/min/mg] | also measured
Lys^296 mutant: hBVR with Lys^296→Ala at the C terminus within a substrate binding domain (protein, UniProt P53004 3-296, looked up, variant K296A) Biliverdin reductase A: AEPERKFGVVVVGVGRAGSVRMRDLRNPHPSSAFLNLIGFVSRRELGSIDGVQQISLEDALSSQEVEVAYICSESSSHEDYIRQFLNAGKHVLVEYPMTLSLAAAQELWELAEQKGKVLHEEHVELLMEEFAFLKKEVVGKDLLKGSLLFTAGPLEEERFGFPAFSGISRLTWLVSLFGELSLVSATLEERKEDQYMKMTVCLETEKKSPLSWIEEKGPGLKRNRYLSFHFKSGSLENVPNVGVNKNIFLKDQNIFVQKLLGQFSEKELAAEKKRILHCLGLAEEIQKYCCSRA | essentially comparable to that of the wild type protein | doubling of activity | doubling of activity | – | – | – | – | –
NLS mutant: hemagglutinin tagged hBVR with amino acids 222-227 changed from GLKRNR to VIGSTG (SEQ. ID. No. 25) (protein, UniProt P53004 3-296, looked up, variant G222V L223I K224G R225S N226T R227G, hemagglutinin tag) Biliverdin reductase A: AEPERKFGVVVVGVGRAGSVRMRDLRNPHPSSAFLNLIGFVSRRELGSIDGVQQISLEDALSSQEVEVAYICSESSSHEDYIRQFLNAGKHVLVEYPMTLSLAAAQELWELAEQKGKVLHEEHVELLMEEFAFLKKEVVGKDLLKGSLLFTAGPLEEERFGFPAFSGISRLTWLVSLFGELSLVSATLEERKEDQYMKMTVCLETEKKSPLSWIEEKGPVIGSTGYLSFHFKSGSLENVPNVGVNKNIFLKDQNIFVQKLLGQFSEKELAAEKKRILHCLGLAEEIQKYCCSRK | – | – | – | not detected | – | – | – | –
Gly^17: hBVR SEQ. ID. No. 1 with Gly^17→Ala within the nucleotide binding domain (protein, listed as Homo sapiens) MNAEPERKFGVVVVGVARAGSVRMRDLRNPHPSSAFLNLIGFVSRRELGSIDGVQQISLEDALSSQEVEVAYICSESSSHEDYIRQFLNAGKHVLVEYPMTLSLAAAQELWELAEQKGKVLHEEHVELLMEEFAFLKKEVVGKDLLKGSLLFTSDPLEEDRFGFPAFSGISRLTWLVSLFGELSLVSATLEERKEDQYMKMTVCLETEKKSPLSWIEEKGPGLKRNRYLSFHFKSGSLENVPNVGVNKNIFLKDQNIFVQKLLGQFSEKELAAEKKRILHCLGLAEEIQKYCCSRK | – | essentially inactive | essentially inactive | – | 698 | 20-25% | 0 | reductase activity relative to the control (wild type) ([3]; pH 8.7 with NADPH): inactive; reduction in phosphorylation (biliverdin reductase [4]; anti-phospho mix, laser densitometry): approximately 50%; reduction of phosphoserine signal (biliverdin reductase [4]; anti-phosphoserine): approximately 50%; reduction in phosphothreonine signal (biliverdin reductase [4]; anti-phosphothreonine): not evident; reduction of phosphotyrosine signal (biliverdin reductase [4]; anti-phosphotyrosine): approximately 50%
wild type: wild type human biliverdin reductase, SEQ. ID. No. 1; E. coli expressed or purified from human kidney (protein, listed as Homo sapiens) MNAEPERKFGVVVVGVGRAGSVRMRDLRNPHPSSAFLNLIGFVSRRELGSIDGVQQISLEDALSSQEVEVAYICSESSSHEDYIRQFLNAGKHVLVEYPMTLSLAAAQELWELAEQKGKVLHEEHVELLMEEFAFLKKEVVGKDLLKGSLLFTSDPLEEDRFGFPAFSGISRLTWLVSLFGELSLVSATLEERKEDQYMKMTVCLETEKKSPLSWIEEKGPGLKRNRYLSFHFKSGSLENVPNVGVNKNIFLKDQNIFVQKLLGQFSEKELAAEKKRILHCLGLAEEIQKYCCSRK | – | – | – | strong punctate staining associated with the nucleus | 2830 | – | 1338 | Activity % pH 6.7 + NADH ([3]; Cys→Ala mutations, wild type = 100, pH 6.7, NADH): 100%; Activity % pH 8.7 + NADPH ([3]; Cys→Ala mutations, wild type = 100, pH 8.7, NADPH): 100%; phosphorylation state (biliverdin reductase [1]; protein purified from human kidney, anti-phospho mix): phosphoprotein; specific activity ([2]; pH 6.5, NADH): 1744 nmol bilirubin produced min^−1 mg^−1; specific activity ([2]; pH 8.7, NADPH): 1147 nmol bilirubin produced min^−1 mg^−1
Ser^149: hBVR SEQ. ID. No. 1 with Ser^149→Ala within the kinase motif of the leucine zipper (protein, listed as Homo sapiens) MNAEPERKFGVVVVGVGRAGSVRMRDLRNPHPSSAFLNLIGFVSRRELGSIDGVQQISLEDALSSQEVEVAYICSESSSHEDYIRQFLNAGKHVLVEYPMTLSLAAAQELWELAEQKGKVLHEEHVELLMEEFAFLKKEVVGKDLLKGALLFTSDPLEEDRFGFPAFSGISRLTWLVSLFGELSLVSATLEERKEDQYMKMTVCLETEKKSPLSWIEEKGPGLKRNRYLSFHFKSGSLENVPNVGVNKNIFLKDQNIFVQKLLGQFSEKELAAEKKRILHCLGLAEEIQKYCCSRK | essentially comparable to that of the wild type protein | essentially inactive | essentially inactive | – | 0 | inactive | 231 | reductase activity relative to the control (wild type) ([3]; pH 8.7 with NADPH, listed as Ser^149 mutant): minimal activity
